Data reported in patent US20160201097A1, “Materials and Methods of Producing 7-Carbon Monomers” (INVISTA North America S.á.r.l., priority 2014, published 2016).

Experiments:
Assay type in all cases: biochemical
[1] = carboxylate reductase activity: N7-acetyl-7-aminoheptanoate to N7-acetyl-7-aminoheptanal (NADPH consumption, A340); settings: purified enzyme enhanced by sfp gene product, 2 mM N7-acetyl-7-aminoheptanoate, pH 7.5, room temperature, 20 min; against the empty vector control (FIG. 10)
Experimental: The activity of each of the N-terminal His-tagged carboxylate reductases of SEQ ID NOs: 3, 5, and 6 (see Examples 2 and 3, and FIG. 6) for converting N7-acetyl-7-aminoheptanoate to N7-acetyl-7-aminoheptanal was assayed in triplicate in a buffer composed of a final concentration of 50 mM HEPES buffer (pH=7.5), 2 mM N7-acetyl-7-aminoheptanoate, 10 mM MgCl2, 1 mM ATP, and 1 mM NADPH. The assays were initiated by adding purified carboxylate reductase and phosphopantetheine transferase or the empty vector control to the assay buffer containing the N7-acetyl-7-aminoheptanoate then incubated at room temperature for 20 min. The consumption of NADPH was monitored by absorbance at 340 nm.

[2] = carboxylate reductase activity: pimelate to pimelate semialdehyde (NADPH consumption, A340); settings: purified enzyme enhanced by sfp gene product, 2 mM pimelate, pH 7.5, room temperature, 20 min; against the empty vector control (FIG. 8)
Experimental: A nucleotide sequence encoding a HIS-tag was added to the nucleic acid sequences from Segniliparus rugosus and Segniliparus rotundus that encode the carboxylate reductases of SEQ ID NOs: 4 (EFV11917.1) and 6 (ADG98140.1), respectively (see FIG. 6), such that N-terminal HIS tagged carboxylate reductases could be produced. Each of the modified genes was cloned into a pET Duet expression vector along with a sfp gene encoding a HIS-tagged phosphopantetheine transferase from Bacillus subtilis, both under the T7 promoter. Each expression vector was transformed into a BL21[DE3] E. coli host and the resulting recombinant E. coli strains were cultivated at 37° C. in a 250 mL shake flask culture containing 50 mL LB media and antibiotic selection pressure, with shaking at 230 rpm. Each culture was induced overnight at 37° C. using an auto-induction media.
The pellet from each induced shake flask culture was harvested via centrifugation. Each pellet was resuspended and lysed via sonication, and the cell debris was separated from the supernatant via centrifugation. […]
Enzyme activity assays (i.e., from pimelate to pimelate semialdehyde) were performed in triplicate in a buffer composed of a final concentration of 50 mM HEPES buffer (pH=7.5), 2 mM pimelate, 10 mM MgCl2, 1 mM ATP and 1 mM NADPH. […] The consumption of NADPH was monitored by absorbance at 340 nm. […]

[3] = carboxylate reductase activity: pimelate semialdehyde to heptanedial (NADPH consumption, A340); settings: purified enzyme enhanced by sfp gene product, 2 mM pimelate semialdehyde, pH 7.5, room temperature, 20 min; against the empty vector control (FIG. 11)
Experimental: The N-terminal His-tagged carboxylate reductase of SEQ ID NO: 6 (see Example 3 and FIG. 6) was assayed using pimelate semialdehyde as substrate. The enzyme activity assay was performed in triplicate in a buffer composed of a final concentration of 50 mM HEPES buffer (pH=7.5), 2 mM pimelate semialdehyde, 10 mM MgCl2, 1 mM ATP and 1 mM NADPH. The enzyme activity assay reaction was initiated by adding purified carboxylate reductase and phosphopantetheine transferase or the empty vector control to the assay buffer containing the pimelate semialdehyde and then incubated at room temperature for 20 min. The consumption of NADPH was monitored by absorbance at 340 nm.

acceptance of pimelate as substrate (NADPH consumption) [2]: accepted pimelate as substrate
B1: SEQ ID NO: 6: Segniliparus rotundus carboxylate reductase, N-terminal HIS tagged (protein, listed as Segniliparus rotundus)
chain: MTQSHTQGPQASAAHSRLARRAAELLATDPQAAATLPDPEVVRQATRPGLRLAERVDAILSGYADRPALGQRSFQTVKDPITGRSSVELLPTFDTITYRELRERATAIASDLAHHPQAPAKPGDFLASIGFISVDYVAIDIAGVFAGLTAVPLQTGATLATLTAITAETAPTLFAASIEHLPTAVDAVLATPSVRRLLVFDYRAGSDEDREAVEAAKRKIADAGSSVLVDVLDEVIARGKSAPKAPLPPATDAGDDSLSLLIYTSGSTGTPKGAMYPERNVAHFWGGVWAAAFDEDAAPPVPAINITFLPLSHVASRLSLMPTLARGGLMHFVAKSDLSTLFEDLKLARPTNLFLVPRVVEMLYQHYQSELDRRGVQDGTREAEAVKDDLRTGLLGGRILTAGFGSAPLSAELAGFIESLLQIHLVDGYGSTEAGPVWRDGYLVKPPVTDYKLIDVPELGYFSTDSPHPRGELAIKTQTILPGYYKRPETTAEVFDEDGFYLTGDVVAQIGPEQFAYVDRRKNVLKLSQGEFVTLAKLEAAYSSSPLVRQLFVYGSSERSYLLAVIVPTPDALKKFGVGEAAKAALGESLQKIARDEGLQSYEVPRDFIIETDPFTVENGLLSDARKSLRPKLKEHYGERLEAMYKELADGQANELRDIRRGVQQRPTLETVRRAAAAMLGASAAEIKPDAHFTDLGGDSLSALTFSNFLHDLFEVDVPVGVIVSAANTLGSVAEHIDAQLAGGRARPTFATVHGKGSTTIKASDLTLDKFIDEQTLEAAKHLPKPADPPRTVLLTGANGWLGRFLALEWLERLAPAGGKLITIVRGKDAAQAKARLDAAYESGDPKLAGHYQDLAATTLEVLAGDFSEPRLGLDEATWNRLADEVDFISHPGALVNHVLPYNQLFGPNVAGVAEIIKLAITTRIKPVTYLSTVAVAAGVEPSALDEDGDIRTVSAERSVDEGYANGYGNSKWGGEVLLREAHDRTGLPVRVFRSDMILAHQKYTGQVNATDQFTRLVQSLLATGLAPKSFYELDAQGNRQRAHYDGIPVDFTAESITTLGGDGLEGYRSYNVFNPHRDGVGLDEFVDWLIEAGHPITRIDDYDQWLSRFETSLRGLPESKRQASVLPLLHAFARPGPAVDGSPFRNTVFRTDVQKAKIGAEHDIPHLGKALVLKYADDIKQLGLL
modifications: N-terminal His tag
notes: Segniliparus rotundus carboxylate reductase, N-terminal HIS tagged
acceptance of N7-acetyl-7-aminoheptanoate as substrate (NADPH consumption) [1]: accepted N7-acetyl-7-aminoheptanoate as substrate
acceptance of pimelate semialdehyde as substrate, forming heptanedial (NADPH consumption) [3]: accepted pimelate semialdehyde as substrate
